Experiments:
[1] = target: cobalamin binding domains of Thermus thermophilus CarH (TtCBD) (Thermus thermophilus); assay: crystal structure
[2] = target: cobalamin binding domains of Thermus thermophilus CarH (TtCBD) (Thermus thermophilus); assay: time-resolved X-ray solution scattering

cobalamin binding domains of Thermus thermophilus CarH (TtCBD) (domain or fragment)
stoichiometry N [1]: 4
stoichiometry N [2]: 4
time constant of tetramer dissociation after photoexcitation [2]: 620 ms
